Measured values taken from the supplement of paper PMC9170038.

system: MS2 coat protein; assay: apparent KD of MS2 coat protein; higher = weaker reporter binding; conditions: Eterna round: R107; input ligand: theophylline 20 uM
In short: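 Each design's apparent KD comes from the median of binding-curve fits to its normalised clusters. Those clusters carried RNA switches transcribed on-chip from Illumina sequencing clusters. SNAP-549-labelled MS2 coat protein was titrated onto them in twofold steps (0.7 or 1.5 nM to 3 µM; per step 0.8–1.5 h down to 10–20 min). Conditions were 100 mM Tris-HCl pH 7.5, 80 mM KCl, 4 mM MgCl2, without or with constant ligand.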

Sequence	apparent KD of MS2 coat protein [µM]
AGUAACAUGAGGAUCACCCAUGUAUGAGAAGGAGCGUGUUUUAACACAGGUAGGUCGCUCAAUAUUAUUUACUAGCGAAAGCUAG [JR_SSArginiA_Sub007]	0.0233
CAGACUAGGGCGGCCGCCACUGUGGCUACGGUACAUGAGGAUCACCCAUGUUUGUGGUUGAUCUACAGGACCGGGCCCUGGCACG [Orbera]	0.588
GCACAUGAGGAUCACCCAUGUAUUACUGAAGGAGCGAGACAGAACUCAGGUAGGUCGCAGACUGCACAAUUGCGGACGACAUGGG [Exclusion Arginine A GF22]	0.041
GGAUAGGACAGAAGGAGCGACAUCGCCGAAAGGCUGGUAAGAUCACAUGAGGAUCACCCAUGUCAGGUAGGUCGCUGUCCUAUCG [ArgXB 11 #Zipper #MS2Left #StaticStem #Blueprint]	0.36
GGGUAAGAUCCGGAUACCAGCGAACAUGAGGAUCACCCAUGUGACCUAAGAUAGGCUAAACGCCCUUGGCAGCCGAGAUAGCGUU [Same State Theophylline B GF 6]	0.0342
AACAUGAGGAUCACCCAUGUCUGAACUGAAGGAGCGCUAAAUAAGGCAGGUAGGUCGCGGAAUUUUAUAUAUAUAUAUAUAUGGG [9.E]	0.0399
CACAAUUUGUCGGCCGCCACUAAGGUAACUUUUCUCACAUGAGGAUCACCCAUGUGCCCGAAACUUAGGACCGGGAUAAUGGGUG [Usteraor]	0.146
UGAUACCAGUCGGCCGCCACUACAUGAGGAUCACCCAUGUAUCCUCAACUGCUAGAUACUAGCAGUAGGACCGGGACUGGUAUCU	0.408
CCUAUUCCUACGGAUACCAGACGAUCCGUGGCGUGUGUGAACAUGAGGAUCACCCAUGUAGUCCCUUGGCAGCCGAUGCGGGUAA [theeternabot_exclusion_MS2_Theo_B_10]	0.0514
AUCGUACCUGAGGAUACCAGCAUGUGAUCAUAACAUGAGGAUCACCCAUGUAAUCAGUGAUGCCCUUGGCAGCUUGGUCGAUACA [Same State - Theophylline B (Freestyle 9)]	0.075
UGAAAGUAGGGAAGGAGCGCUACAACAUGAGGAUCACCCAUGUAAUGAGGAUCACCCAUGUGGCAGGUAGGUCGCCCAAAACAUG [#14 Same State - Arginine B]	0.151
UCGUGCAGAGCGGCCGCCACUGUAUUGCGUGCGGAUGACGGAACAUGAGGAUCACCCAUGUUGUUUAGGACCGGGCUUGCCACCA ['xmullin]	0.0159
GGACUCGUCACGGCCGCCACUGCGGUGGUGUGACAUGAGGAUCACCCAUGUUGUCAUGCGGCCCUUAGGACCGGGUGUCGCUUCC [#1 Exclusion - Tryptophan B Attempt #24 (HarryS)]	0.221
AGGUGCAAAGCACCCUCUGGCCCUCGUGAAGGAGCGCUCGAAAGAGCAGGUAGGUCGCAUGAGGAUCACCCAUGUGAGCCAGAGA [Arg A Exc A v1]	0.0835
AACGUAUACAGAAGGAGCGUGAUUUAUAUUUCUUUAACAUAUACAUGAGGAUCACCCAUGUCACAGGUAGGUCGCUGUAUUCGUA [JR_ExcArginiB_Sub023]	0.0401
CAUUAUGUAACUGAUACCAGUGUACUGACAUGAGGAUCACCCAUGUUGGGUUUUGUUGUACACCCUUGGCAGCAGAAUCAUAAUG [AstrosExyTheB#2]	0.0703
GGAUAGGACACGGCCGCCACUAGCUAGGAUACUAGCAACAUUUCCUCACUUGAGGAUCACCCAAGUAGGACCGGGUGUCCUAUCG	0.25
CUAAGAGCGGCGGCCGCCACUGGUAACCGAGAGGAGGAGCCUCUGACAUGAGGAUCACCCAUGUUCAGGACCGGGUCGUCUUAGA [#06 Same State - Tryptophan B]	0.0775
GAGGGUGAAUCUCUGGUCCGUUUGACGGAUACCAGCGAGAGGUAUCGCCCUUGGCAGCCGACGACAUGAGGAUCACCCAUGUUAA [#08 Exclusion-TheophyllineA]	0.0304

same assay, conditions: Eterna round: R107; input ligand: theophylline 2 mM

Sequence	apparent KD of MS2 coat protein [µM]
UUGGGUAUGCGAAGGAGCGGGAAAUAUAUAUAUAUAAUCCUAACAUGAGGAUCACCCAUGUCCCAGGUAGGUCGCGCAUGUUUGG [12.K]	0.423
GACCGAUUAUAGUGCGAUUGUCUUGUGGAAGGAGCGCAGAGGACUGCAGGUAGGUCGCCACAUGAGGAUCACCCAUGUCAGGAUU [Reinorlaan]	0.0648
AGCACAUGAGGAUCACCCAUGUGUCGGUACCGAGGACCGGUACGGCCGCCACUCGCAGGACAUGAGGAUCACCCAUGUGCCGCCG [SSTA DOUBLE!!! :-D #8]	0.0359
GGACUAACCAGAAGGAGCGACACGCAGAAACUGCAAAAUCCUCCGCACGAGGAUCACCCGUGUCAGGUAGGUCGCUGGUUAGUCG	0.0602
AAUACCGGUCCUCGAAGUGAUCCUCAUGAACGAGGACCGGUACGGCCGCCACUCGAUAACAUGAGGAUCACCCAUGUAAUAAUAA [|T'-M'-Trp-Ms2|_Design4]	0.115
AUAACAUGAGGAUCACCCAUGUUGAGUGAUACCAGACCAUGUAGUGUCCCUUGGCAGCACAGGUAAAGUUGUAAAUAACGAUAGA [#13 SameState-TheophyllineA]	0.0228
CGAUGCGCAUUAUCCCACUGGUAUGAGUCUCGAGGACCGGUACGGCCGCCACUCGCUACCGUACAUGAGGAUCACCCAUGUAUUA [theeternabot_exclusion_MS2_Trp_A_13]	0.0359
AAAAUCCUAUCUGAGGAUCACCCAGGUGAAGGAGCGCCCGAAAGGGCAGGUAGGUCGCACCUGAGGAUCACCCUGGUAACCUAAA [ArgEX 10 #DoubleMS2 #OpenEnded #AlternativeMS2]	0.123
AAACGCCACGGAAGGAGCGACAUGAGGAUCACCCAUGUAGAAGUGGCGGAUGCACCCUCCUGUCAGGUAGGUCGCCGUGCGCCAA [XArg-B24]	0.0297
UAAACUACACAUGAGGAUCACCCAUGUGGCCGAGGACCGGUACGGCCGCCACUCGUGUGUUAAUAAAAGAACUGCAAGAUUCUUU [Issoraor]	0.396
UGGGAAGGAGGAAGGAGCGCCAUAAGGGUGACUGUCUGGGUACAUGAGGAUCACCCAUGUAGGCAGGUAGGUCGCCUCGCUCUCA [Bibienoned]	0.0104
GGGCGCGUGGACCGGCGUGCUCCGCUCCGUCGAGGACCGGUACGGCCGCCACUCGACAUGAGGAUCACCCAUGUGUGAGCUCGCG [#1 Exclusion - Tryptophan A Attempt #16 (HarryS)]	0.08
AGAGUUAGACAAAAGUCUAGCUCACCAGAAGGAGCGUCCGAAAGGACAGGUAGGUCGCUGGUACAUGAGGAUCACCCAUGUUCCU [ArgAS 8 #OpenEnded]	0.145
GCUGCCAUACGAAGGAGCGCUGCUGCGAUGUGGCGAACAUGAGGAUCACCCAUGUGGCAGCAGCAGGUAGGUCGCGUAUGGCAGC [#01 Exclusion - Arginine B]	0.259
UGUAUGGACUGAAGGAGCGGAAAAUAAACCUGAGGAUCACCCGGGUAAUAGGCGAAAGCCAUCCAGGUAGGUCGCAGUCCAUACU	0.385
UGUAUGUGAUCUGAUACCAGCCUCAUAACUUGAGGAUCACCCAAGUGGAGCGGAAACGCUGGCCCUUGGCAGCAGAUCGCAUACU [TheoBS 2 #AlternativeMS2]	0.0153
AGUAACAUGAGGAUCACCCAUGUAUGAGAAGGAGCGUGUUUUAACACAGGUAGGUCGCUCAAUAUUAUUUACUAGCGAAAGCUAG [JR_SSArginiA_Sub007]	0.0179
CAGACUAGGGCGGCCGCCACUGUGGCUACGGUACAUGAGGAUCACCCAUGUUUGUGGUUGAUCUACAGGACCGGGCCCUGGCACG [Orbera]	0.2
GCACAUGAGGAUCACCCAUGUAUUACUGAAGGAGCGAGACAGAACUCAGGUAGGUCGCAGACUGCACAAUUGCGGACGACAUGGG [Exclusion Arginine A GF22]	0.0312
GGAUAGGACAGAAGGAGCGACAUCGCCGAAAGGCUGGUAAGAUCACAUGAGGAUCACCCAUGUCAGGUAGGUCGCUGUCCUAUCG [ArgXB 11 #Zipper #MS2Left #StaticStem #Blueprint]	0.627
GGGUAAGAUCCGGAUACCAGCGAACAUGAGGAUCACCCAUGUGACCUAAGAUAGGCUAAACGCCCUUGGCAGCCGAGAUAGCGUU [Same State Theophylline B GF 6]	0.0307
